Data on seven molecules can be found in PMC314469, “Protein Interaction Networks by Proteome Peptide Scanning” (PLoS Biology, 2004).

T1: Rvs167 SH3 (RV167_YEAST), P39743
T1 chain: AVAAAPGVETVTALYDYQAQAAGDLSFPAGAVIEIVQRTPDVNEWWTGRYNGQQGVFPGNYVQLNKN

T2: Boi2 SH3 (BOI2_YEAST), P39969
T2 chain: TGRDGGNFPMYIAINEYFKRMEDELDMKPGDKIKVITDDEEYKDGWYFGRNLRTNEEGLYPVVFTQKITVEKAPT

T3: Yhr016c SH3 (YSC84_YEAST), P32793
T3 chain: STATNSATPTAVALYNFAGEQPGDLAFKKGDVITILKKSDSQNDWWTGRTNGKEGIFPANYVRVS

T4: Myo5 SH3 (MYO5_YEAST), Q04439
T4 chain: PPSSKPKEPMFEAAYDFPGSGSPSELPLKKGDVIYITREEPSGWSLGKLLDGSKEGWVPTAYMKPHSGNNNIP

T5: Yfr024 SH3 (LSB3_YEAST), P43603
T5 chain: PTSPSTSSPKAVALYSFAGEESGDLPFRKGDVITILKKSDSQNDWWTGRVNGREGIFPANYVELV

T6: Boi1 SH3 (BOI1_YEAST), P38041
T6 chain: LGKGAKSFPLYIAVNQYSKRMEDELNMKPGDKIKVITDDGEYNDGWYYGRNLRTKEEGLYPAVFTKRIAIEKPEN

For the first assay, the target named is T1, Rvs167 SH3 (RV167_YEAST), P39743. Briefly: SPOT array.
KVLIKTLPVLPEAR [YNL271C 1679-1692] displayed a normalised SPOT signal, Boehringer light units (BLU); mean over the file's lines of this peptide of 84.2.
Same read-out and setting: in the case of KTSTKAQPAEPQAE [YNL071W 132-145] it was 72.7.
Same read-out and setting: the figure for KVSSKYDPDNPNKD [YBR235W 48-61] is 95.8.
In turn, KTVDKGLPMIPTYV [YDR516C 56-69] yielded a normalised SPOT signal, Boehringer light units (BLU); mean over the file's lines of this peptide of 24.1.
On the same count and under the same terms, in the case of KYSFKLVPPQPGSK [YBL085W 849-862] it was 40.4; in that of KVIRKGSPKSPAMV [YKL170W 23-36], 200; in that of LASDKGLPMIPAFV [YCL040W 56-69], 51.5.

For another assay, the target named is Sho1 SH3 (SHO1_YEAST), P40073. Briefly: SPOT array.
Sequence of Sho1 SH3 (SHO1_YEAST), P40073 (P40073 295-366): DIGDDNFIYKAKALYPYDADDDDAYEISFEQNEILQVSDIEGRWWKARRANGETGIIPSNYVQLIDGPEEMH
For the molecule KVLIKTLPVLPEAR [YNL271C 1679-1692], the normalised SPOT signal, Boehringer light units (BLU); mean over the file's lines of this peptide amounted to 3050.
KTSTKAQPAEPQAE [YNL071W 132-145] displayed a normalised SPOT signal, Boehringer light units (BLU); mean over the file's lines of this peptide of 6.5.
Still for that read-out and setting: in the case of KVSSKYDPDNPNKD [YBR235W 48-61] it was 31.3.
Regarding KTVDKGLPMIPTYV [YDR516C 56-69], the normalised SPOT signal, Boehringer light units (BLU); mean over the file's lines of this peptide was 8310.
On the same count and under the same terms, in the case of KYSFKLVPPQPGSK [YBL085W 849-862] it was 70.4; in that of KVIRKGSPKSPAMV [YKL170W 23-36], 49.9; in that of LASDKGLPMIPAFV [YCL040W 56-69], 15200.

In the next assay the target is T2, Boi2 SH3 (BOI2_YEAST), P39969. Description: SPOT array.
KVLIKTLPVLPEAR [YNL271C 1679-1692] yielded a normalised SPOT signal, Boehringer light units (BLU); mean over the file's lines of this peptide of 5.4.
Still for that read-out and setting: in the case of KTSTKAQPAEPQAE [YNL071W 132-145] it was 3.7.
KVSSKYDPDNPNKD [YBR235W 48-61] had a normalised SPOT signal, Boehringer light units (BLU); mean over the file's lines of this peptide of 23.8.
For the molecule KTVDKGLPMIPTYV [YDR516C 56-69], the normalised SPOT signal, Boehringer light units (BLU); mean over the file's lines of this peptide is 5.
The same measure, in the same setting: the figure for KYSFKLVPPQPGSK [YBL085W 849-862] is 20; for KVIRKGSPKSPAMV [YKL170W 23-36] it is 0; for LASDKGLPMIPAFV [YCL040W 56-69] it is 134.

The target in another assay is T3, Yhr016c SH3 (YSC84_YEAST), P32793. Description: SPOT array.
In the case of KVLIKTLPVLPEAR [YNL271C 1679-1692], the normalised SPOT signal, Boehringer light units (BLU); mean over the file's lines of this peptide was determined as 0.
Regarding KTSTKAQPAEPQAE [YNL071W 132-145], the normalised SPOT signal, Boehringer light units (BLU); mean over the file's lines of this peptide was determined as 43.6.
In turn, KVSSKYDPDNPNKD [YBR235W 48-61] showed a normalised SPOT signal, Boehringer light units (BLU); mean over the file's lines of this peptide of 32.1.
Same read-out and setting: in the case of KTVDKGLPMIPTYV [YDR516C 56-69] it was 20.1.
Still for that read-out and setting: in the case of KYSFKLVPPQPGSK [YBL085W 849-862] it was 29.7; in that of KVIRKGSPKSPAMV [YKL170W 23-36], 8.7; in that of LASDKGLPMIPAFV [YCL040W 56-69], 62.8.

In the next assay the target is T4, Myo5 SH3 (MYO5_YEAST), Q04439. Briefly: SPOT array.
Take KVLIKTLPVLPEAR [YNL271C 1679-1692]: the normalised SPOT signal, Boehringer light units (BLU); mean over the file's lines of this peptide amounted to 237.
As to KTSTKAQPAEPQAE [YNL071W 132-145], the normalised SPOT signal, Boehringer light units (BLU); mean over the file's lines of this peptide is 167.
On the same count and under the same terms, in the case of KVSSKYDPDNPNKD [YBR235W 48-61] it was 434; in that of KTVDKGLPMIPTYV [YDR516C 56-69], 76.8.
As for KYSFKLVPPQPGSK [YBL085W 849-862], the normalised SPOT signal, Boehringer light units (BLU); mean over the file's lines of this peptide amounted to 219.
The same measure, in the same setting: the figure for KVIRKGSPKSPAMV [YKL170W 23-36] is 496.
In turn, LASDKGLPMIPAFV [YCL040W 56-69] showed a normalised SPOT signal, Boehringer light units (BLU); mean over the file's lines of this peptide of 79.9.

A further assay addresses T5, Yfr024 SH3 (LSB3_YEAST), P43603. Description: SPOT array.
Turning to KVLIKTLPVLPEAR [YNL271C 1679-1692], the normalised SPOT signal, Boehringer light units (BLU); mean over the file's lines of this peptide turned out to be 251.
On the same count and under the same terms, the figure for KTSTKAQPAEPQAE [YNL071W 132-145] is 162; for KVSSKYDPDNPNKD [YBR235W 48-61] it is 44.7; for KTVDKGLPMIPTYV [YDR516C 56-69] it is 11.9.
Same read-out and setting: the figure for KYSFKLVPPQPGSK [YBL085W 849-862] is 104; for KVIRKGSPKSPAMV [YKL170W 23-36] it is 180; for LASDKGLPMIPAFV [YCL040W 56-69] it is 48.3.

The next assay addresses T6, Boi1 SH3 (BOI1_YEAST), P38041. Briefly: SPOT array.
For KVLIKTLPVLPEAR [YNL271C 1679-1692], the normalised SPOT signal, Boehringer light units (BLU); mean over the file's lines of this peptide is 142.
The same measure, in the same setting: in the case of KTSTKAQPAEPQAE [YNL071W 132-145] it was 84.2; in that of KVSSKYDPDNPNKD [YBR235W 48-61], 127; in that of KTVDKGLPMIPTYV [YDR516C 56-69], 14.3.
For KYSFKLVPPQPGSK [YBL085W 849-862], the normalised SPOT signal, Boehringer light units (BLU); mean over the file's lines of this peptide came to 198.
The molecule KVIRKGSPKSPAMV [YKL170W 23-36] displayed a normalised SPOT signal, Boehringer light units (BLU); mean over the file's lines of this peptide of 457.
In turn, LASDKGLPMIPAFV [YCL040W 56-69] yielded a normalised SPOT signal, Boehringer light units (BLU); mean over the file's lines of this peptide of 94.4.
